# Measured values reported in patent US6140129.
# System: FLP recombinase (Saccharomyces cerevisiae (2-micron plasmid))
# Experiment: cell_activity
substance,measurement,setting,value
minimal wild-type FRT (from pJFS36),activity (colonies per plate),"lambda FRT36 integration at lacZ-FRT with IPTG (39 without), lacY-FRT 206 with and 247 without",139
E. coli chromosome without FRT,activity (Tet^R colonies per trial),"no chromosomal FRT, 4 experiments",0
same,activity (colonies per plate),"non-target strain with IPTG, 0 without",1
